{"source": "patent US10801046B2", "about": "“Methods and materials for biosynthesizing multifunctional, multivariate molecules via carbon chain modification” (INVISTA NORTH AMERICA S.A.R.L., priority 2016, dated 2020)", "molecules": {"B1": {"name": "SEQ ID NO: 92: Treponema primitia thioesterase (protein)", "chain": "MDVWKESYPVGFTAVDESEGLTLAAAFDYFQEAARRHAEVLGVGQEPMVQAGQGWVLSRISVLVERRPRQGELITVSTWPRGWEKLFALRDFDIRDESDKPIVRARSCWLIVNIEKRRPLRPQATMEKLPLNEGRDALPGGGVGLAPLENLLKAGDRVAAYSDIDYNGHVNNARYVQWVQDIADPTALVQAKTLRLDINYLSEVKIHEPIELWTEPLPAESDAVYTLGVEGRRNGGAVFRAELRIKD", "modifications": "Treponema primitia (strain ATCC BAA-887 / DSM 12427 / ZAS-2)", "notes": "Treponema primitia thioesterase"}, "B2": {"name": "SEQ ID NO: 61: Congregibacter litoralis KT71 thioesterase (protein)", "chain": "MGLLLGLALLLTGQLARAESTAGERPRILVVGDSISAAYGMSLEQGWAALLERRLQTRWPGAQVINASISGDTSAGGARRLPKLLAEHSPDLVVIELGGNDGLRGYPTSKLEANLSFMAEAASTAGAEVLILPMEIPPNYGPRYTRSFRESFERAATDTGATLGPFLLDGIATEEQLMQQDGIHPTVEAQPMITDIVQPVIEALLALREAS", "modifications": "Congregibacter litoralis KT71", "notes": "Congregibacter litoralis KT71 thioesterase"}, "B3": {"name": "SEQ ID NO: 89: Clostridium cellulolyticum thioesterase (protein, listed as Clostridium cellulolyticum)", "chain": "MEPLSIYKKNYHVDYGDADFYKRLKLSYLFNYFQNIAGLHSENTNVGIRKLQNDYGAAWVMTRMLMDINRMPECNEEISIETWPVEPKKKMIDRNFIVRDMDGSILASAISTWVILDMEKREMVRIDSVIPPQYPEFLKSKAIDRKFDKLKPSGQLQPAYKKLVGFSDIDINGHVNNAKYIDYILDCFTVEKHGEYRVKSIQINYVNEAVAGDIISLYKDTVDMDGSDKAVYITGINEVDGKVNFESHIRVQ", "modifications": "Clostridium cellulolyticum (strain ATCC 35319 / DSM 5812 / JCM 6584 / H10)", "notes": "Clostridium cellulolyticum thioesterase"}, "B4": {"name": "SEQ ID NO: 75: Clostridium thermocellum thioesterase (protein, listed as Clostridium thermocellum)", "chain": "MQKKRFSKKYEVHYYEINSMQEATLLSLLNYMEDCAISHSTSAGYGVNELLAADAGWVLYRWLIKIDRLPKLGETITVQTWASSFERFYGNREFIVLDGRDNPIVKASSVWIYFNIKKRKPMRIPLEMGDAYGIDETRALEEPFTDFDFDFEPKVIEEFTVKRSDIDTNSHVNNKKYVDWIMETVPQQIYDNYKVTSLQIIYKKESSLGSGIKAGCVIDEQNTDNPRLLHKIWDKNTGLELVSAETIWQKIQS", "modifications": "Clostridium thermocellum (strain ATCC 27405 / DSM 1237 / NBRC 103400 / NCIMB 10682 / NRRL B-4536 / VPI 7372)", "notes": "Clostridium thermocellum thioesterase"}, "B5": {"name": "SEQ ID NO: 76: Thermovirga lienii thioesterase (protein, listed as Thermovirga lienii)", "chain": "MYEHNFRISYSQAGALGRLKLTGAMNLCQDIADDHAERVGVSVADLLKQSKTWVLHRFKMTIQTMPQRGDLVTIKTWYRPEKNLYSLRNFEMLDCNGKKLLSVQTSWVVVDMNRGRPLRLDRVMPEAYDKNKDENLEVSFQELLLPEKVDVKKTIQVAVTDLDMNFHVNNVHYLRWALDTIPVEILKEYKPKGVEIAFKRPAFYGDSVISEVGIDKNSCSILCRHHIYGEKDGQSMAVISTEWEKISREER", "modifications": "Thermovirga lienii (strain ATCC BAA-1197 / DSM 17291 / Cas60314)", "notes": "Thermovirga lienii thioesterase"}, "B6": {"name": "SEQ ID NO: 94: Paenibacillus sp. IHBB 10380 thioesterase (protein)", "chain": "MGNIWTEEHLIYSNEIDYKANCRLSNLLSLMQRAADGDVEHMGGTRDQMVAHHLGWMLTTIDLACERMPIFNETLKITTWNKGTKGPLWLRDFRIFDENNQEIAKACTLWALVDIDKRKVLRPSAYPFNINSNHEDSVGPVPDKLNISDEVELYHSYSITVRYSGIDSNGHLNNSRYADLCMDTLTQSELDTLSILGFHITYYHEVKSAEQIQVLRSDHLEGYIYFRGQSLEDERYFEACLHVG", "modifications": "Paenibacillus sp. IHBB 10380", "notes": "Paenibacillus sp; IHBB 10380 thioesterase"}, "B7": {"name": "SEQ ID NO: 60: Escherichia coli thioesterase (protein)", "chain": "MNTTLFRWPVRVYYEDTDAGGVVYHASYVAFYERARTEMLRHHHFSQQALMAERVAFVVRKMTVEYYAPARLDDMLEIQTEITSMRGTSLVFTQRIVNAENTLLNEAEVLVVCVDPLKMKPRALPKSIVAEFKQ", "modifications": "Escherichia coli (strain K12)", "notes": "Escherichia coli thioesterase"}, "B8": {"name": "SEQ ID NO: 93: Oceanimonas sp. thioesterase (protein)", "chain": "MLRILVLLLCLVSPTVLADTLLILGDSLSAGYRMRSDQAWPHLLAEQWRREGRQVTVINASVSGDTTQGGLQRLPPLLQRHQPSLVLLELGGNDGLRGLPPGLIERNLERLIALAGDAGARVILTDIQLPPNYGRRYLQQFEQVFSRLASQHQLPLLPFFVAPLMGEQGMMMDDGIHPTVKAQPLIARQVGEFLTPYLTP", "modifications": "Oceanimonas sp. (strain GK1)", "notes": "Oceanimonas sp. thioesterase"}, "B9": {"name": "SEQ ID NO: 207: Dictyostelium discoideum carboxylate reductase (protein, listed as Dictyostelium discoideum)", "chain": "MINNWLAVGLLVVSGILAFNWKRKHPYGQTVEIGEKPENGGRIRRNSACADHLISFLEDDEIYTLYDSLVKSCKKYGERKCFGERKKDSNGNLGKFEWISYNTYLERCEYIQQGLCELGLKPKSKVGIFSKNRLEWLIVHSASFIQSYCVVSFYETLGVESLSYVTEHAEIGLAFCSAETLQKTLDIAKGVKVLKTIICFDSIDKEHYNIAKELGVTLYTYDEIMKKGKEANGKHKHTPPTPDTLSTIMYTSGTTGPPKGVMITHKNLTSVVCAVSDFIKVYDTDVHYSYLPYAHVLERVVILAAFHFGAAIGIFSGDISNILVEVKLLSPTLFIGVPRVFERIKTNVFKEISKKPALLRTLFNGAYNLKYLSIQHGFKLPIIEKVLDLVFFSKIKQALGGKVRVILSGSAPLSFDTEVFLRVVMCCCVLQGYGASEGCGGDACKRLDDESVGTIGPPFASNEIKLVDVPELGYDSNGEVQTGEVCLRGPSISSGYYKDEEKTREEFKDGWFHTGDIGRWNRDGSLSIVDRKKNIFKLSQGEYVAVEKIETIVVKSEYVEQVCIYGDSQKSCVIAIIHPHPESCSEWAGSKKTDKDIKEICKNQDFIKVVLDDIIKNCKKSGLHGFEIPKAIHLTPEAFSDQNNLLTPSFKLKRHEIKKYFEDEIKKLYSKLD"}, "B10": {"name": "SEQ ID NO: 208: Ascaris suum carboxylate reductase (protein, listed as Ascaris suum)", "chain": "MRYWWKTSHSNYKLDAVCDINNQTRELPVSVASCKDGSRVAACLDGDHLAPFIHEDALTLYEGVRRGLRVSNNGPMLGYRKKQPDGSEPYVWLTYKEVIDRAVDFAYGLLDVGIPAGQKTFIGVYAKNRPEWVIAEQGTYNNNSVLVPLYETLGPDACTFIINQSEMSMVICDTEVKAAGLLKEKENIPTLKYLVVMEDYTNGLREAAAREGVYVYHFLDIEKRGREFVNKPALQIPSPGDVCTICYTSGTTGAPKGVMLTHGNVIAAATALTFVRNINFCETDVVISFLPLAHMFERLLECIIFQTGAHVGFFSGDIRRLPEDIKELRPTVIPLVPRVLNRIYDKVMSEVNKSFIKKAVFHFALAFKVRELRNGIVRNDSVFDKLVFNKIRDAMGGRVKLMVTGSAPLAEKVMTFARAAMGCVVLEGYGQTECAAASTLGIEADTRAGHVGIPSICNAVKLVDVPELEYYAKDMVGEVCIRGFNVFKGYYKNDELTREVLDDQGWLHTGDVGRWTENGTLQIIDRKKHIFKLSQGEYVAPEKIEGIYARSKYVAQSFVHGESLKTCLVGVIVPDPEALERVAAERFGLKDVKLKELCSNEAVRQLILEDITAVGKKAGLFSFEQVKDIFLTPDAFSVGNDLLTPTLKNKRPKLKEHFAAQLESMYSKLN"}, "B11": {"name": "SEQ ID NO: 204: Geotrichum candidum carboxylate reductase (protein, listed as Geotrichum candidum)", "chain": "MSATLNGTQFPPEVAARLRTYPIATDPSVNANTPLITDPVTVKPYKIGKPQAVPVPGSKVDGFSEVYRNAHCPDRLVTTVHPKITTVVEAFDACVSEYKNEKALGERVFDGKTKTWSKIYQYETYGTIAKRRLDIGKGISKVVQDVTGFDSRQTPYCLGLYGPNCSNWILTDLAAQTQSIPTVCLYDTLGPDSTRYIMTLTEMPAIVCSVAHIPFVLNIKDELPNLKVIIAMNPINNPDIVDKPGQSKKDVLTAWAKKSGVELFEFTEVEKIGRESGRGLHLPGPDTVLTINFTSGTTGNPKGVVISQANVLAGTIVARSQSTFNHRGSSGFLSFLPLAHIYERLTIHSVLTSGIPIGFFHGDVAELLDDIATYHPTIVAGVPRIWNRIAGAIRASTIEAPGIAGALSRKAYTTKLARLHETGDYHHPIWDRLWSNKIRTKTGFDQAKTFVTGSAPMARENIELIKVALGVEFVQGYGLTETMGGISVCSPGDNTAGSVGPVAITTEVKLRDLPTMNYSSSDKPFPRGEIMIRGPQVFMGYYKNEEATKGSIDEDGWFSSGDVGMIDDLGRLYVIDRVKNFFKLAQGEYVGPERIEALYQSSSGLVAQIFVEGNSLETYLVGIVGVNPEAYVQFLSHNFKMHIKPTDLEAIKKTFSRKDIRDTFLLELNVHAKDAQLKGYEKIKNVTLAIEPFSVENGTLTPTLKVKRPDAARLFKADVDAMYKEGPVEVKSKL"}}, "data": [{"test_system": "heptanedioyl-ACP methyl ester", "assay": "Cell lysate in vitro thioesterase screen (DTNB, absorbance at 410 nm) on heptanedioyl-ACP methyl ester", "format": "biochemical", "details": "0.33 mM acyl-ACP substrate, 30° C., 30 min", "values": [{"molecule": "B1", "activity toward heptanedioyl-ACP methyl ester (hydrolysis)": "notable for their activity toward heptanedioyl-ACP methyl ester"}, {"molecule": "B2", "activity toward heptanedioyl-ACP methyl ester (hydrolysis)": "notable for their activity toward heptanedioyl-ACP methyl ester"}, {"molecule": "B3", "activity toward heptanedioyl-ACP methyl ester (hydrolysis)": "notable for their activity toward heptanedioyl-ACP methyl ester"}, {"molecule": "B4", "activity toward heptanedioyl-ACP methyl ester (hydrolysis)": "notable for their activity toward heptanedioyl-ACP methyl ester"}, {"molecule": "B5", "activity toward heptanedioyl-ACP methyl ester (hydrolysis)": "notable for their activity toward heptanedioyl-ACP methyl ester"}, {"molecule": "B6", "activity toward heptanedioyl-ACP methyl ester (hydrolysis)": "notable for their activity toward heptanedioyl-ACP methyl ester"}, {"molecule": "B7", "activity toward heptanedioyl-ACP methyl ester (hydrolysis)": "notable for their activity toward heptanedioyl-ACP methyl ester"}, {"molecule": "B8", "activity toward heptanedioyl-ACP methyl ester (hydrolysis)": "notable for their activity toward heptanedioyl-ACP methyl ester"}]}, {"test_system": "not listed separately", "assay": "In vivo carboxylate reductase screening, substrate consumption by LC-MS, monomethyl heptanedioate", "format": "cell-based, Escherichia coli", "details": "541 enzymes screened in vivo", "procedure": "(§1) To screen carboxylate reductases in vivo, […] T7- pUC expression vectors was co-transformed into T7 Express lysY/Iq with the phosphopantetheinyl transferase sfp from Bacillus subtilis on a T7-pCDF expression vector. Biological duplicates of the resulting strains were incubated in 0.5 mL of terrific broth containing either 1 g/L heptanedioate or 1 g/L monomethyl heptanedioate and supplemented with 0.4 mM IPTG in 96-well deep well plates. The plates were incubated for 30 h at 30° C. in a shaking incubator. The cells were then pelleted, and culture supernatants from the same strains in media containing either heptanedioate or monomethyl heptanedioate were combined. The combined supernatants were analyzed by LC-MS to determine the concentration of heptanedioate and monomethyl heptanedioate. Carboxylate reductase activity on heptanedioate or monomethyl heptanedioate was reflected by consumption of the respective substrate in the medium.", "values": [{"molecule": "B9", "monomethyl heptanedioate activity": "most monomethyl heptanedioate activity"}, {"molecule": "B10", "monomethyl heptanedioate activity": "most monomethyl heptanedioate activity"}]}, {"test_system": "not listed separately", "assay": "In vivo carboxylate reductase screening, substrate consumption by LC-MS, heptanedioate", "format": "cell-based, Escherichia coli", "details": "541 enzymes screened in vivo", "procedure": "as §1", "values": [{"molecule": "B11", "substrate preference, heptanedioic acid to 7-oxoheptanoate": "preferred acting upon heptanedioic acid to form 7-oxoheptanoate"}]}, {"test_system": "heptanedioyl-ACP methyl ester", "assay": "not given", "format": "cell-based, Escherichia coli", "details": "top 150 hits screened in vivo", "values": [{"molecule": "B4", "activity toward heptanedioyl-ACP methyl ester in vivo": "showed activity toward heptanedioyl-ACP methyl ester"}, {"molecule": "B5", "activity toward heptanedioyl-ACP methyl ester in vivo": "showed activity toward heptanedioyl-ACP methyl ester"}]}]}
